# Measured values taken from patent publication US20230270861A1, “Inhibitors of the Artemin Pathway for Treatment of Cancer” (The University of Chicago, priority 2020, published 2023).
# B1: artemin: Recombinant mouse artemin (1085-AR) from R&D Systems; neurotropic factor of the GDNF family (protein)
# chain: AGTRSSRARTTDARGCRLRSQLVPVSALGLGHSSDELIRFRFCSGSCRRARSQHDLSLASLLGAGALRSPPGSRPISQPCCRPTRYEAVSFMDVNSTWRTVDHLSATACGCLG
# Key:
# [1] = test system: LLC tumor; experiment: Tumor growth of LLC tumor-bearing mice treated with IR or anti-PD-L1 plus test agent; type: in vivo, mouse; settings: LLC tumor-bearing B6 mice; agent combined with 20 Gy IR or anti-PD-L1
# Description: Tumor models and treatments. 1×10^6 MC38, LLC, or B16-SIY tumor cells were subcutaneously injected into the flank of mice. On day 10 after tumor inoculation, tumors were either irradiated with one dose of 20 Gy or mice received sham treatment. For anti-PD-L1 treatment experiments, 200 μg anti-PD-L1 (10F.9G2) or isotype control was given by i.p. every three days for a total of four times starting on day 10 after tumor inoculation. For type I IFN blockade experiments, 200 μg anti-IFNAR1 were intratumorally injected on days 0 and 2 after irradiation. For CD4 or CD8 T cell depletion experiments, 200 μg anti-CD4 or anti-CD8 mAb was delivered four times by i.p. injection every 3 days starting 1 day before therapies. Artemin-neutralizing antibody was delivered i.t. at 1 μg/mouse starting on day of irradiation, every 2 days for 7 doses. For Ter-cell depletion, anti-ter119 was injected i.p. at 20 μg/mouse every 2 days for 4 doses. For Ter-cell or artemin treatment groups, mice were administered 1×10^7 purified Ter cells i.v. every other day for a total of three doses, or mice were treated with 0.5 μg/mouse artemin i.t. every other day starting on day 0 of therapies throughout the studies. For EPO treatment groups, mice were treated with 20 U/mouse EPO i.v. every other day throughout the studies, starting on day 0 of the therapies. IFN-γ was administered through intrasplenic injection on day 15 post tumor implantation at 2 μg/mouse for 1 dose. LOXO-292 was administered by oral gavaging at 100 μg/mouse/day throughout the entire studies, starting on day 0 of the therapies. Spleens were harvested on day 20 or at indicated times post-inoculation for analysis of spleen size or splenic cells. Tumor size was monitored and calculated with the formula for area (length×width).
# [2] = test system: MC38 cells; experiment: Colony formation assay of irradiated MC38 cells; type: cell-based, mouse; settings: 0, 1 or 3 Gy; 100 ng/mL artemin
# Description: FIG. 40. Colony formation assay of MC38 cells treated with 0, 1, or 3 Gy irradiation. MC38 cells were either co-cultured with 2×10^6 Ter-cells (left) sorted from spleens of tumor-bearing mice, or treated with 100 ng/mL artemin (right). Representative data are shown from three experiments. Data are represented as mean±SD. *p<0.05, **p<0.01, and ***p<0.001.
# [3] = test system: MC38-OTI-zsGreen cells; experiment: CD8+ T cell mediated killing (apoptosis) of MC38-OTI-zsGreen cells; type: cell-based, mouse; settings: 100 ng/mL artemin for 6 h
# Description: FIGS. 41A-41B. (FIG. 41A) Apoptosis of MC38 cells as analyzed by flow cytometry. 1×10^5 MC38-OTI-zsGreen cells were co-cultured with 2×10^5 CD8^+ T cells purified from OTI mice in 96-well U bottomed plates. Tumor cells were either co-cultured with 2×10^5 Ter-cells sorted from spleens of tumor-bearing mice or treated with 100 ng/mL artemin for 6 h. Representative data are shown from three experiments. Data are represented as mean±SD. *p<0.05, **p<0.01 and ***p<0.001. (FIG. 41B) Apoptosis of MC38 cells was analyzed by flow cytometry. 1×10^5 MC38-OTI-zsGreen cells were co-cultured with 2×10^5 CD8+ T cells purified from OTI mice in 96-well U bottom plates. Tumor cells were either co-cultured with 2×10^5 Ter-cells sorted from spleen of tumor-bearing mice or treated with 100 ng/mL artemin (ARTN) for 6 h. Representative data are shown from two or three experiments conducted with 3-5 mice or samples per group.
# [4] = test system: CD8 T cells; experiment: In vitro CD8 T cell treatment with artemin; type: cell-based, mouse; settings: 24 hours
# Description: (§1) FIGS. 71A-71I. […] (FIGS. 71A-71E) CD8 T cells were purified from WT spleen and treated with recombinant artemin for 24 hours (150 ng/mL for FIGS. 71B, 71C, 71D, and 71E). T proliferation was examined (FIG. 71A), and the indicated effector molecules were analyzed by flow cytometry (FIGS. 71B, 71C, and 71D) and q-PCR (FIG. 71E). (FIGS. 71F-71I) MC38 murine colon cancer tumors were treated with artemin (i.t.), and single cell suspensions of tumors were stained with indicated markers and examined by flow cytometry (FIGS. 71F, 71G, 71H, and 71I).
# In vitro testing: CD8 T cell treatment with artemin. CD8 T cells were isolated from spleens of naïve mice. CD8 T cells were cultured with T cell activation beads for 3 days and labeled with DNA dye cellTrace violet, followed by co-culturing with 150 ng/mL recombinant artemin for 24 hours. T cells were then washed and stimulated by stimulation cocktail and protein transport cocktail for 6 hours before being subjected to intracellular antibody staining.
# [5] = test system: MC38 murine colon cancer tumors; experiment: In vivo MC38 murine colon cancer treatment with artemin (i.t.), flow cytometry of tumor cells; design: species or system mouse
# Description: as §1
# FIGS. 72A-72C. […] MC38 tumor were digested into single cell suspension and stained with markers that characterize T cells, DCs, and MDSCs. Flow cytometry was performed. […] (FIG. 72B) Changes in CD4 T cells.
# In vivo testing: MC38 murine colon cancer treatment with artemin. Established MC3 8 murine colon cancer tumors were treated with artemin by intra-tumoral injection. Tumors were digested into single cell suspension, stimulated and stained with intracellular antibodies. Cells were analyzed by flow cytometry.
# [6] = test system: CD8 T cells and bone marrow derived MDSCs; experiment: qPCR of possible artemin receptors in CD8 T cells and MDSCs co-cultured with artemin; type: cell-based, mouse; settings: co-culture with artemin
# Excerpt: (§2) FIGS. 73A-73D. Study of the effects of artemin and radiation on mRNA expression of possible artemin receptors in different immune cells. (FIG. 73A) mRNA level of known GDNF receptors in CD8+ T cells after co-culture with artemin. (FIG. 73B) mRNA level of known GDNF receptors in MDSCs (CD11b+Ly6C+) cells. GFRα1, GFRα3 and NCAM expression in DC (FIG. 73C) and natural killer (NK) cells (FIG. 73D) in tumors responding to artemin or/and radiation treatments. R1, GFRα1; R3, GFRα3.
# Quantitative PCR (qPCR). Expression of possible artemin receptors GFRα1 (primers: SEQ ID NOs: 5, 6), GFRα3 (primers: SEQ ID NOs: 7, 8), Syndecan 3 (primers: SEQ ID NOs: 9, 10), NCAM (primers: SEQ ID Nos: 11, 12), and RET (SEQ ID Nos: 13, 14) was analyzed by qPCR in CD8 T cells and bone marrow derived MDSCs during co-culture with artemin.
# [7] = test system: Lewis lung carcinoma (LLC) tumors; experiment: Flow cytometry of GFRα1, GFRα3 and NCAM in LLC tumors treated with artemin and/or IR; type: in vivo, mouse
# Excerpt: as §2
# Radiation (IR) treatment analysis. We treated established Lewis lung carcinoma (LLC) tumors with control, artemin, IR, and artemin+IR (20 Gy IR). Flow cytometry with staining of GFRα1, GFRα3 and NCAM receptors was performed.
molecule,measurement,setting,value
B1,Tumor growth: influence on the therapeutic effect of IR and PD-L1 blockade,[1],diminished the anti-tumor effects of IR and PD-L1 blockade
same,Radio-resistance of MC38 tumor cells (colony formation),[2],increased the radio-resistance
same,CD8+ T cell mediated killing of tumor cells,[3],impaired
same,CD8 T cell proliferation,[4]; 200 ng/mL,reduced CD8 T cell proliferation
same,"Production of IFN-γ, granzyme B and TNFα in T cells (protein and RNA level)",[4],decreases in production
same,CD4 T helper cell numbers,[5],not significantly changed
same,PD-L1 expression on dendritic cells (CD11C+) and MDSCs (CD11b+Ly6C+),[5],induced PD-L1 expression
same,Treg percentage in CD4 T cells,[5],significantly increased
same,Frequency of total CD8 T cell among CD45+ cells,[5]; artemin i.t.,did not alter frequency
same,IFN-γ production in intratumoral T cells,[5]; artemin i.t.,not significant
same,Production of granzyme B and TNFα proteins in intratumoral T cells,[5]; artemin i.t.,significantly reduced
same,"Expression of exhaustion markers PD-1, LAG3 and TIM3",[5]; intratumoral T cells,did not change the expression
same,GFRα1 mRNA in MDSC cells,[6],induction of GFRα1
same,GFRα3 mRNA in CD8 T cells,[6],Induction of GFRα3
same,GFRα3 expression on NK cells,[7],induces GFRα3 expression
